The target of this experiment is T1, negative control phosphoprotein AGPADAPAGAVVGGG[S^P/S]PRGRPGPVPAPGLLA fused to N-terminal split mCherry (central residue (position 16 of SEQ ID NO:59) printed as [S^P/S]: phosphoserine with SepOTSλ, serine with tRNA^supD).
T1 construct: also called n.c; (14-3-3 experiment); negative control for the 14-3-3 experiment; not shown: N-terminal split mCherry and linker
T1 chain: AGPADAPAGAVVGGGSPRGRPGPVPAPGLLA
Kind of experiment: clonal BiFC split mCherry (negative control of the 14-3-3 experiment).

B1: human 14-3-3β fused to C-terminal split mCherry (C-mCh) with C-terminal 6xHis tag (other)
chain: MTMDKSELVQKAKLAEQAERYDDMAAAMKAVTEQGHELSNEERNLLSVAYKNVVGARRSSWRVISSIEQKTERNEKKQQMGKEYREKIEAELQDICNDVLELLDKYLIPNATQPESKVFYLKMKGDYFRYLSEVASGDNKQTTVSNSQQAYQEAFEISKKEMQPTHPIRLGLALNFSVFYYEILNSPEKACSLAKTAFDEAIAELDTLNEESYKDSTLIMQLLRDNLTLWTSENQGDEGDAGEGENELGAAAGGSGGALKGEIKQRLKLKDGGHYDAEVKTTYKAKKPVQLPGAYNVNIKLDITSHNEDYTIVEQYERAEGRHSTGGMDELYKHHHHHH
notes: also called 14-3-3 isoform β
Regarding B1, the binding result was “no binding”.

B2: human 14-3-3σ fused to C-terminal split mCherry (C-mCh) with C-terminal 6xHis tag (other)
chain: MERASLIQKAKLAEQAERYEDMAAFMKGAVEKGEELSCEERNLLSVAYKNVVGGQRAAWRVLSSIEQKSNEEGSEEKGPEVREYREKVETELQGVCDTVLGLLDSHLIKEAGDAESRVFYLKMKGDYYRYLAEVATGDDKKRIIDSARSAYQEAMDISKKEMPPTNPIRLGLALNFSVFHYEIANSPEEAISLAKTTFDEAMADLHTLSEDSYKDSTLIMQLLRDNLTLWTADNAGEEGGEAPQEPQSELGAAAGGSGGALKGEIKQRLKLKDGGHYDAEVKTTYKAKKPVQLPGAYNVNIKLDITSHNEDYTIVEQYERAEGRHSTGGMDELYKHHHHHH
notes: also called 14-3-3 isoform σ
As to B2, the binding result is “no binding”.
